Like-named read-outs stand apart in the source and are kept apart here.
Tests used:
[1] = biological target: T1, thrombin (Amersham Biosciences) (human, UniProt P00734;P00734 315-363;364-622); assay: filter binding
[2] = biological target: T1, thrombin (Amersham Biosciences); assay: filter binding; remark: listed apart in the source

Binder	binding result [1]	binding result [2]
GTCTCTTGTGTGACTCTGGTAAC (ssDNA) [P8 ssDNA control]	no binding	–
GGACUUCGGUCC (structured_RNA) [H1 RNA hairpin control]	–	no binding
